Reference: patent US20210187069A1

Biological target: wildtype SARM1 (endogenous, in wildtype mouse dorsal root ganglion neurons) (mouse) (UniProt Q6PDS3)
Test: cell-based or functional assay

Sequence of wildtype SARM1 (endogenous, in wildtype mouse dorsal root ganglion neurons) (mouse) (Q6PDS3 28-724 limits assumed): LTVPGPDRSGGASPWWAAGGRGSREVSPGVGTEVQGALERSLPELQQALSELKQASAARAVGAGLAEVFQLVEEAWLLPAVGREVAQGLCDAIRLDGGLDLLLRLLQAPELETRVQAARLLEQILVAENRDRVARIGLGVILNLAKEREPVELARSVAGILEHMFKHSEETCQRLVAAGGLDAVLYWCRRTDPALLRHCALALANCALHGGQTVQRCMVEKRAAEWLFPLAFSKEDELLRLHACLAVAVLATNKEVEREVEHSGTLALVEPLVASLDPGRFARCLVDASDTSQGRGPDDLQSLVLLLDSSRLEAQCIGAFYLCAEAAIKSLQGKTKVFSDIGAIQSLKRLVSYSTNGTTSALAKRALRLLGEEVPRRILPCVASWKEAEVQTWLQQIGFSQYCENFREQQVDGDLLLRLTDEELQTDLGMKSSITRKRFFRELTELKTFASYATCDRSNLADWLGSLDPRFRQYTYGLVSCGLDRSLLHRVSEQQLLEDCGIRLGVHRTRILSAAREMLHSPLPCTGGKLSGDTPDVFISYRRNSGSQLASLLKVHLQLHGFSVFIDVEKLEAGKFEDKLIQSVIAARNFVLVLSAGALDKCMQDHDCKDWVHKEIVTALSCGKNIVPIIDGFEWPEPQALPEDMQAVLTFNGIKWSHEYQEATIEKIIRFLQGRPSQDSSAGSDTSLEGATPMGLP

SARM1 E569K (from UniProt Q6SZW1 28-724)
axon degeneration after axotomy: 24 h
